# Laboratory results taken from IntAct's records for PubMed 11248247.
# B1: Twist-related protein 1 (Homo sapiens), Q15672 (parent)
# chain: MMQDVSSSPVSPADDSLSNSEEEPDRQQPPSGKRGGRKRRSSRRSAGGGAGPGGAAGGGVGGGDEPGSPAQGKRGKKSAGCGGGGGAGGGGGSSSGGGSPQSYEELQTQRVMANVRERQRTQSLNEAFAALRKIIPTLPSDKLSKIQTLKLAARYIDFLYQVLQSDELDSKMASCSYVAHERLSYAFSVWRMEGAWSMSASH
# Variants of: B1
# Conditions: with TCF3, P15923-1
# Sequence of TCF3, P15923-1 (P15923 whole entry): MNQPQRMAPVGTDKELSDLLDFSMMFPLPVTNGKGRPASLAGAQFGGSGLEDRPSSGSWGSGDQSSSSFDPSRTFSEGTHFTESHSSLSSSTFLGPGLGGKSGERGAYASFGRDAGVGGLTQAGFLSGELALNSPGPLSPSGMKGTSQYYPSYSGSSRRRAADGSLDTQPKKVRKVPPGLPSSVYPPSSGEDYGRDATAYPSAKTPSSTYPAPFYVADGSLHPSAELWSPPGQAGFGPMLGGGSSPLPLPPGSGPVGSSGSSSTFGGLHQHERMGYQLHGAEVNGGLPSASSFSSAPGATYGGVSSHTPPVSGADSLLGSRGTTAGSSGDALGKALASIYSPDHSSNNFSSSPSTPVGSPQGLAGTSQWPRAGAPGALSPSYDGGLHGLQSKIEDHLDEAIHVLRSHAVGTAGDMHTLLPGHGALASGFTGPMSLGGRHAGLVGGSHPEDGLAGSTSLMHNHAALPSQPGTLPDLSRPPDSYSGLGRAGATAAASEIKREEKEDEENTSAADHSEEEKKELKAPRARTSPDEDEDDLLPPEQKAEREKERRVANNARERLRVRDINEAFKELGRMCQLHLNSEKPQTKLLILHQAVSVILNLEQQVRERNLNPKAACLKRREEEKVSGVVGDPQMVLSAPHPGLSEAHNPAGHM
row,Variant,effect of a mutation on the interaction
1,MMQDVSSSPVSPADDSLSNSEEEPDRQQPPSGKRGGRKRRSSRRSAGGGAGPGGAAGGGVGGGDEPGSPAQGKRGKKSAGCGGGGGAGGGGGSSSGGGSPQSYEELQTQRVMANVRECQRTQSLNEAFAALRKIIPTLPSDKLSKIQTLKLAARYIDFLYQVLQSDELDSKMASCSYVAHERLSYAFSVWRMEGAWSMSASH [R118C],with no effect
2,MMQDVSSSPVSPADDSLSNSEEEPDRQQPPSGKRGGRKRRSSRRSAGGGAGPGGAAGGGVGGGDEPGSPAQGKRGKKSAGCGGGGGAGGGGGSSSGGGSPQSYEELQTQRVMANVRERQRTQSLNEAFAALRKIIPTLPSDKLRKIQTLKLAARYIDFLYQVLQSDELDSKMASCSYVAHERLSYAFSVWRMEGAWSMSASH [S144R],with no effect
3,MMQDVSSSPVSPADDSLSNSEEEPDRQQPPSGKRGGRKRRSSRRSAGGGAGPGGAAGGGVGGGDEPGSPAQGKRGKKSAGCGGGGGAGGGGGSSSGGGSPQSYEELQTQRVMANVRERQRTQSLNEAFAALRKIIPTLPSDKLSEIQTLKLAARYIDFLYQVLQSDELDSKMASCSYVAHERLSYAFSVWRMEGAWSMSASH [K145E],decreasing interaction strength

# Variants of: B1
# Conditions: with TCF3, P15923-1
# Remark: another data set of the same source
row,Variant,effect of a mutation on the interaction
1,MMQDVSSSPVSPADDSLSNSEEEPDRQQPPSGKRGGRKRRSSRRSAGGGAGPGGAAGGGVGGGDEPGSPAQGKRGKKSAGCGGGGGAGGGGGSSSGGGSPQSYEELQTQRVMANVRERQRTQSLNEAFAALRKIIPTLPSDKLSEIQTLKLAARYIDFLYQVLQSDELDSKMASCSYVAHERLSYAFSVWRMEGAWSMSASH [K145E],with no effect
